How the values were obtained:
[1] = molecular target: H3N2 A/Singapore/INFIMH-16-0019/2016 (H3/Sing16) HA (influenza A virus H3N2 A/Singapore/INFIMH-16-0019/2016); experiment: BLI
[2] = molecular target: influenza B/Lee/1940 (B/Lee40) HA (influenza B virus B/Lee/1940); experiment: BLI
Chain of influenza B/Lee/1940 (B/Lee40) HA (influenza B virus B/Lee/1940) (P03460 16-552 limits assumed): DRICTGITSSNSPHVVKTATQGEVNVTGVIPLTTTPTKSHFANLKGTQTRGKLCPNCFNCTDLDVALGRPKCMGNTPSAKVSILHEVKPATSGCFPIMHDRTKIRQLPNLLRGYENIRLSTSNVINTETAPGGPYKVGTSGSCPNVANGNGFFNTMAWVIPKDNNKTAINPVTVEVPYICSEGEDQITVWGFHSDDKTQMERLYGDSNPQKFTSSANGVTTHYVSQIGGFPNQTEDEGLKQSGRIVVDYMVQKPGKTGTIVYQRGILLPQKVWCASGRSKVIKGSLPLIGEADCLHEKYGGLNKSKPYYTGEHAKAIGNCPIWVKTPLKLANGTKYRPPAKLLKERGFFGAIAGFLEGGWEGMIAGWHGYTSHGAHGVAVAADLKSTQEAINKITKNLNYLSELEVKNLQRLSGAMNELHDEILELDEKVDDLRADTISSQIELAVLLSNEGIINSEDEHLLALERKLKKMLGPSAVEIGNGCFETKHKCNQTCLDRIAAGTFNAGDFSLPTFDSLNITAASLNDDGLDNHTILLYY

How did the Kd [1] turn out when somatic CR9114 Fab was run?
Its Kd is 0.036 µM.

And the Kd [2]?
Its Kd is 0.11 µM.

— publication PMC13638050
